Data on one molecule can be found in patent publication US12162911B2, “Pulmonary administration of pyocins for treating bacterial respiratory infections” (priority 2014, dated 2024).

In this experiment the test system is P. aeruginosa P8. In words: Repeated pyocin exposure followed by P. aeruginosa P8 lung infection and pyocin S5 treatment. The format is in vivo, Pseudomonas aeruginosa. Particulars: for survival: infected at thirteen weeks, 75 μg intranasal 1 h post-infection. The method, then: Repeated pyocin exposure. Pyocin S5 or PBS was given three times, two weeks apart with administration either via intranasal route (referred to as I.N. groups) or intraperitoneal route (referred to as I.P. groups). For I.N. administration the groups were: PBS and pyocin S5 (75 μg; 25 μl at 3 mg ml^−1). For I.P. administration the group was pyocin S5 (75 μg; 100 μl at 750 μg ml^−1). The PBS I.N. group served as the control group for the I.P. group. Thirteen weeks after the first exposure mice (n=5) were infected intranasally with P. aeruginosa P8 (I.N group infected with 1.4×10^7 CFU, I.P group infected with 5.0×10^6 CFU) and treated intranasally one hour post-infection with 75 μg of pyocin S5 or PBS, as described previously.
To ascertain if repeated exposure to pyocins gives rise to an antibody response that is detrimental to treatment, mice were repeatedly exposed to pyocin S5 to induce an antibody response and the efficacy of pyocin treatment was determined as before after infection with P. aeruginosa P8. Pyocin S5 was administered three times, with two weeks between each administration, either via the intranasal route (I.N.) or the intraperitoneal (I.P.) route. Thirteen weeks after the first treatment, mice (n=5) were infected intranasally with P. aeruginosa P8 (I.N. group infected with 1.4×10^7 CFU, I.P. group infected with 5.0×10^6 CFU) and treated intranasally 1 h post-infection with 75 μg of pyocin S5 or PBS. A control group administered only PBS intranasally prior to infection was also included. […] The levels of pyocin-S5 specific IgG and IgA were analysed for each mouse.

B1: Pyocin S5: S-type pyocin, SEQ ID NO: 13; binds FptA, pore-forming effector (protein, listed as Pseudomonas aeruginosa)
chain: MSNDNEVPGSMVIVAQGPDDQYAYEVPPIDSAAVAGNMFGDLIQREIYLQKNIYYPVRSIFEQGTKEKKEINKKVSDQVDGLLKQITQGKREATRQERVDVMSAVLHKMESDLEGYKKTFTKGPFIDYEKQSSLSIYEAWVKIWEKNSWEERKKYPFQQLVRDELERAVAYYKQDSLSEAVKVLRQELNKQKALKEKEDLSQLERDYRTRKANLEMKVQSELDQAGSALPPLVSPTPEQWLERATRLVTQAIADKKQLQTTNNTLIKNSPTPLEKQKAIYNGELLVDEIASLQARLVKLNAETTRRRTEAERKAAEEQALQDAIKFTADFYKEVTEKFGARTSEMARQLAEGARGKNIRSSAEAIKSFEKHKDALNKKLSLKDRQAIAKAFDSLDKQMMAKSLEKFSKGFGVVGKAIDAASLYQEFKISTETGDWKPFFVKIETLAAGAAASWLVGIAFATATATPIGILGFALVMAVTGAMIDEDLLEKANNLVISI
With B1, the survival result (I.N. pre-exposure 75 μg three times two weeks apart) was “survived to the 24 h time-point” and the survival result (I.P. pre-exposure 75 μg three times two weeks apart) is reported as “all survived to the 24 h time-point”. Besides, the “bacterial load of the lungs” value is “no viable bacteria were recovered” (I.N. pre-exposure 75 μg three times, 75 μg intranasal 1 h post-infection (FIG. 8a)) and “no viable bacteria were recovered” (I.P. pre-exposure 75 μg three times, 75 μg intranasal 1 h post-infection (FIG. 8c)).
